B4: GST-Lge1-StrepII (natural protein, S. cerevisiae, UniProt Q02796 1-332, looked up)
chain: MSGYTGNNYSRYSSTPPRQRGGYHHARRSRGGAGGSYYRGGNASYGARYNSDYEQPPQEGDLRQTGAYYRNGYTDTRPYYSANSRHYQAQPSPRYNNGTNSYHLPQRGNSQDTNGRTTSASQEDNDEKRVKSRYRNMQADHPRQQPMSVGSTSSRNGSSGNSSTSSTSNGLPPPPSVSSITNNRSYHSSAYPYSSSHTYNNYHHRETPPPPPSNGYYAKGYPVHVPENRSNSDGSSSSVVKKKRILDMKDSPFIYLTDFDKNVKKTNNTESECEKAREVFKESDSIDSALEELNLKINSNELELRLLNNQCDKHALNIQLTQEKLDSLLLMQ

Legend:
[1] = molecular target: the molecule itself; assay: co-sedimentation
[2] = molecular target: B4; assay: pull-down
[3] = molecular target: T1, 6His-Lge1-StrepII (S. cerevisiae, UniProt Q02796 1-332); assay: recruitment to reconstituted condensates
T1 sequence (looked up): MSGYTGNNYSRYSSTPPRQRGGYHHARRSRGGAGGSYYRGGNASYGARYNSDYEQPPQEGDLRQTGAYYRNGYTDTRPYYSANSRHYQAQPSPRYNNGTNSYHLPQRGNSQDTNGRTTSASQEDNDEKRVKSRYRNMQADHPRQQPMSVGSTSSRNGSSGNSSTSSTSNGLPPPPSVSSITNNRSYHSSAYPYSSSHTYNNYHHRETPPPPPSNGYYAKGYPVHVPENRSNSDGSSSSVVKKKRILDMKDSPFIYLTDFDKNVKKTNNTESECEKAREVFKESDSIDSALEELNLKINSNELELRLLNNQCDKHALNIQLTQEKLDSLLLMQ

[4] = molecular target: T2, StrepII-Bre1 (S. cerevisiae, UniProt Q07457 1-700); assay: pull-down
T2 sequence (looked up): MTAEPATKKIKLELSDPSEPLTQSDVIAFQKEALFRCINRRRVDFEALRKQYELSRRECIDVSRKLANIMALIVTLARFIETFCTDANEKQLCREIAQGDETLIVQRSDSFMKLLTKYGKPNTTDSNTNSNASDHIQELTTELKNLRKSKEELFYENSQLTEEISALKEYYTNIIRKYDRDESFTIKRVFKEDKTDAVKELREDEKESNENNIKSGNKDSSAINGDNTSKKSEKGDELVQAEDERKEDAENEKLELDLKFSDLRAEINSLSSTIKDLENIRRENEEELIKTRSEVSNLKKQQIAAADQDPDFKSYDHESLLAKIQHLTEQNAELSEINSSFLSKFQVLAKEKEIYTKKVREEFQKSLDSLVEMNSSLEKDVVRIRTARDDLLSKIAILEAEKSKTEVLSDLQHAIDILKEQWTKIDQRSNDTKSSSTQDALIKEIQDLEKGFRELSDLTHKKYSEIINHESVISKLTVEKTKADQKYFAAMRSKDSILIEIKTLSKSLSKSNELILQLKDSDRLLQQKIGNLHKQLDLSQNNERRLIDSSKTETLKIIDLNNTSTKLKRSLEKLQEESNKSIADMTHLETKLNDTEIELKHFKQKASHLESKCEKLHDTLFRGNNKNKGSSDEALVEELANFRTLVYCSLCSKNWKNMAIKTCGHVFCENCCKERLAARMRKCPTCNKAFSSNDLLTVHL

[5] = molecular target: T3, StrepII-mGFP-Bre1 (S. cerevisiae, UniProt Q07457 1-700); assay: recruitment to reconstituted condensates
T3 sequence (looked up): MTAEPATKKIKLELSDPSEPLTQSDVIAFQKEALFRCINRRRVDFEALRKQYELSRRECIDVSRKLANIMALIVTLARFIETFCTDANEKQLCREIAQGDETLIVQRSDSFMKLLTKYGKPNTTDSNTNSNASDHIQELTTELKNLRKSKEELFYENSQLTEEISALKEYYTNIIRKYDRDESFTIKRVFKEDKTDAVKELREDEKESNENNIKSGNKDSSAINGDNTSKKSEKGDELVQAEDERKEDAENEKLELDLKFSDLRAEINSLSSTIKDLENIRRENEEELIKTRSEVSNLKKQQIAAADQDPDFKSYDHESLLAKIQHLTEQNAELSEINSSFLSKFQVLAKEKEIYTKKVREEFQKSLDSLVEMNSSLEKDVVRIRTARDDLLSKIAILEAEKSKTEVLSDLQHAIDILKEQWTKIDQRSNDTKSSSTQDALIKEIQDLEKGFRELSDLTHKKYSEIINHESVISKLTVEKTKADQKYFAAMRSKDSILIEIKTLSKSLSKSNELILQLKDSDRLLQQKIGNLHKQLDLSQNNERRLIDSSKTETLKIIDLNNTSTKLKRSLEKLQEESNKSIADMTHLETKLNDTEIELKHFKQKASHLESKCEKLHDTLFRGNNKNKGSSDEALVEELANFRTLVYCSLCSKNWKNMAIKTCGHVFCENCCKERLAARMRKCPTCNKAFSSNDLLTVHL

B1: GST-Lge1 IDR-StrepII (domain or fragment, S. cerevisiae, UniProt Q02796 1-242, looked up)
chain: MSGYTGNNYSRYSSTPPRQRGGYHHARRSRGGAGGSYYRGGNASYGARYNSDYEQPPQEGDLRQTGAYYRNGYTDTRPYYSANSRHYQAQPSPRYNNGTNSYHLPQRGNSQDTNGRTTSASQEDNDEKRVKSRYRNMQADHPRQQPMSVGSTSSRNGSSGNSSTSSTSNGLPPPPSVSSITNNRSYHSSAYPYSSSHTYNNYHHRETPPPPPSNGYYAKGYPVHVPENRSNSDGSSSSVVKK
B1: binds [1].

B2: StrepII-Bre1 Lge1 Binding Domain (residues 308-632) (domain or fragment, S. cerevisiae, UniProt Q07457 308-632, looked up)
chain: QDPDFKSYDHESLLAKIQHLTEQNAELSEINSSFLSKFQVLAKEKEIYTKKVREEFQKSLDSLVEMNSSLEKDVVRIRTARDDLLSKIAILEAEKSKTEVLSDLQHAIDILKEQWTKIDQRSNDTKSSSTQDALIKEIQDLEKGFRELSDLTHKKYSEIINHESVISKLTVEKTKADQKYFAAMRSKDSILIEIKTLSKSLSKSNELILQLKDSDRLLQQKIGNLHKQLDLSQNNERRLIDSSKTETLKIIDLNNTSTKLKRSLEKLQEESNKSIADMTHLETKLNDTEIELKHFKQKASHLESKCEKLHDTLFRGNNKNKGSSD
B2: binds [2].

B3: StrepII-mGFP-Bre1 LBD (domain or fragment, S. cerevisiae, UniProt Q07457 308-632, looked up)
chain: QDPDFKSYDHESLLAKIQHLTEQNAELSEINSSFLSKFQVLAKEKEIYTKKVREEFQKSLDSLVEMNSSLEKDVVRIRTARDDLLSKIAILEAEKSKTEVLSDLQHAIDILKEQWTKIDQRSNDTKSSSTQDALIKEIQDLEKGFRELSDLTHKKYSEIINHESVISKLTVEKTKADQKYFAAMRSKDSILIEIKTLSKSLSKSNELILQLKDSDRLLQQKIGNLHKQLDLSQNNERRLIDSSKTETLKIIDLNNTSTKLKRSLEKLQEESNKSIADMTHLETKLNDTEIELKHFKQKASHLESKCEKLHDTLFRGNNKNKGSSD
B3: binds [3].

B4: binds [4].

B5: Pacific Blue-labelled 6His-TEV-Rad6 (enzyme, S. cerevisiae, UniProt P06104 1-172, looked up)
chain: MSTPARRRLMRDFKRMKEDAPPGVSASPLPDNVMVWNAMIIGPADTPYEDGTFRLLLEFDEEYPNKPPHVKFLSEMFHPNVYANGEICLDILQNRWTPTYDVASILTSIQSLFNDPNPASPANVEAATLFKDHKSQYVKRVKETVEKSWEDDMDDMDDDDDDDDDDDDDEAD
modifications: Pacific Blue C5-Maleimide label
B5: binds [5].

B6: GST-Lge1 CC-StrepII (domain or fragment, S. cerevisiae, UniProt Q02796 243-332, looked up)
chain: KRILDMKDSPFIYLTDFDKNVKKTNNTESECEKAREVFKESDSIDSALEELNLKINSNELELRLLNNQCDKHALNIQLTQEKLDSLLLMQ
B6: binds [4].

— paper PMC7481934 (Nature, 2020)
